Experimental data published in PMC10681739, “High-throughput data and modeling reveal insights into the mechanisms of cooperative DNA-binding by transcription factor proteins”.

Molecular target: ETS1:RUNX1 (Homo sapiens, UniProt P14921;Q01196 full;full)
Test: gcPBM; 1 nM ETS1 + 25 nM RUNX1, anti-ETS1 signal, normalised
Details: tags: N-terminal GST (pDEST15), kept (PMC6008103); copies: 1;1; label: surface-attached array probe

Chain of ETS1:RUNX1 (P14921 whole entry, chain 1 of 2): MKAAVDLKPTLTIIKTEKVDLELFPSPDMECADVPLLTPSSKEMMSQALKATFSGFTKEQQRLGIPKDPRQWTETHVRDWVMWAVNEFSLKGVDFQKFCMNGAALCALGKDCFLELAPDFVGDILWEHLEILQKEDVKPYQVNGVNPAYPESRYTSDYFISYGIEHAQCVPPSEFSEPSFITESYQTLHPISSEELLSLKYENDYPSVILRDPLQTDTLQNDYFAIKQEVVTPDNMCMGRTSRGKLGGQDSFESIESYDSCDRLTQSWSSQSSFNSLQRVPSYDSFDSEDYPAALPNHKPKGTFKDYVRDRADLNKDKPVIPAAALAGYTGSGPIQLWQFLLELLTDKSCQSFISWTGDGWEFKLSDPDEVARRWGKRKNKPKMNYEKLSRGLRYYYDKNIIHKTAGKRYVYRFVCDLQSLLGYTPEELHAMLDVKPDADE
Chain of ETS1:RUNX1 (Q01196 whole entry, chain 2 of 2): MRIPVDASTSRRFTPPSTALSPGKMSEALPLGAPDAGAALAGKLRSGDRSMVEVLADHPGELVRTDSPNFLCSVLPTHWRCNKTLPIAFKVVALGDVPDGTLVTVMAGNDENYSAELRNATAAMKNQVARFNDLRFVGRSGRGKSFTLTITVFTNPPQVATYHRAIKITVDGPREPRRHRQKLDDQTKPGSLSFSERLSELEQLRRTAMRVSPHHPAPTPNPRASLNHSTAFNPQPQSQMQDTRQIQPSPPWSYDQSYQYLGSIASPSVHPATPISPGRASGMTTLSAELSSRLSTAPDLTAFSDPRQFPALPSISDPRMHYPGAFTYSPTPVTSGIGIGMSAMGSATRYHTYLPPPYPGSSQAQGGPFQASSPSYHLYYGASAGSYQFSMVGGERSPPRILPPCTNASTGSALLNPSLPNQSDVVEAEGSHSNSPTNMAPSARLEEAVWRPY

Row | Binder | binding signal
1 | Table S2 A row 338 (dsDNA) DNA 1: GCCCAGGGCGGCCGGAAGTTTGCGGGGCGGGGCGGA DNA 2: TCCGCCCCGCCCCGCAAACTTCCGGCCGCCCTGGGC | 16100 PBM fluorescence, median of replicate spots
2 | Table S2 A row 1302 (dsDNA) DNA 1: AACAGACAGGATGTGGCCTCTGCCAAAACCACCATC DNA 2: GATGGTGGTTTTGGCAGAGGCCACATCCTGTCTGTT | 12700 PBM fluorescence, median of replicate spots
3 | Table S2 A row 1276 (dsDNA) DNA 1: ATTTCGCTGAAAACAGGAAACCACGAAGCCCAGATG DNA 2: CATCTGGGCTTCGTGGTTTCCTGTTTTCAGCGAAAT | 7820 PBM fluorescence, median of replicate spots
4 | Table S2 A row 316 (dsDNA) DNA 1: GGCCTGTCACACACAGGAAGCGGTCACAGAAAAGCT DNA 2: AGCTTTTCTGTGACCGCTTCCTGTGTGTGACAGGCC | 7880 PBM fluorescence, median of replicate spots
5 | Table S2 A row 462 (dsDNA) DNA 1: TTCAACAGGATGTGGGAACTTGACTCTCGCCGCAAA DNA 2: TTTGCGGCGAGAGTCAAGTTCCCACATCCTGTTGAA | 13800 PBM fluorescence, median of replicate spots
6 | Table S2 A row 1604 (dsDNA) DNA 1: GGTGTGTTCTGGGGAGGAAGTGGGTTTTCAGGTTGT DNA 2: ACAACCTGAAAACCCACTTCCTCCCCAGAACACACC | 7210 PBM fluorescence, median of replicate spots
7 | Table S2 A row 288 (dsDNA) DNA 1: CATAGACCGGATGCCTCGTCAACCACAGAAACCAAT DNA 2: ATTGGTTTCTGTGGTTGACGAGGCATCCGGTCTATG | 11200 PBM fluorescence, median of replicate spots
8 | Table S2 A row 1419 (dsDNA) DNA 1: TTCACTTCCACCACTTCCTGTGGGTTTTGTTCATCC DNA 2: GGATGAACAAAACCCACAGGAAGTGGTGGAAGTGAA | 7320 PBM fluorescence, median of replicate spots
9 | Table S2 A row 1263 (dsDNA) DNA 1: TCACATTTTGCCGGATGTGGGTTGAGGGCATGCTGC DNA 2: GCAGCATGCCCTCAACCCACATCCGGCAAAATGTGA | 14600 PBM fluorescence, median of replicate spots
10 | Table S2 A row 721 (dsDNA) DNA 1: AGTGCAGAGTGGACAGGATGTGGTGGAGGTGAGAGA DNA 2: TCTCTCACCTCCACCACATCCTGTCCACTCTGCACT | 9260 PBM fluorescence, median of replicate spots
11 | Table S2 A row 309 (dsDNA) DNA 1: CTTAGAGTACCAGGATGTGGTTTGGCCTGGGGGTGG DNA 2: CCACCCCCAGGCCAAACCACATCCTGGTACTCTAAG | 8550 PBM fluorescence, median of replicate spots
12 | Table S2 A row 1376 (dsDNA) DNA 1: CTCTGGCAGGAAGCTCTGAGGGCTAAACCACAAAAA DNA 2: TTTTTGTGGTTTAGCCCTCAGAGCTTCCTGCCAGAG | 8390 PBM fluorescence, median of replicate spots
13 | Table S2 A row 489 (dsDNA) DNA 1: TCTAAATCACTTCCTGTTACAGAAACCACAGGCCTG DNA 2: CAGGCCTGTGGTTTCTGTAACAGGAAGTGATTTAGA | 13000 PBM fluorescence, median of replicate spots
14 | Table S2 A row 456 (dsDNA) DNA 1: AACAGGCAAAGGACAGGATGTGGTGAGCGTCGGCCC DNA 2: GGGCCGACGCTCACCACATCCTGTCCTTTGCCTGTT | 10800 PBM fluorescence, median of replicate spots
15 | Table S2 A row 517 (dsDNA) DNA 1: GTTAGCGTGATCGGAGGATGTGGTTTTCCTCCCTCT DNA 2: AGAGGGAGGAAAACCACATCCTCCGATCACGCTAAC | 12400 PBM fluorescence, median of replicate spots
16 | Table S2 A row 1753 (dsDNA) DNA 1: TGAAGCAGGCGGAAGTGCTGTGGTTTCTGGCGACTG DNA 2: CAGTCGCCAGAAACCACAGCACTTCCGCCTGCTTCA | 15300 PBM fluorescence, median of replicate spots
17 | Table S2 A row 990 (dsDNA) DNA 1: TCCTAAAGCAGGAAATAGTGAGGCTACCGCAGTGTC DNA 2: GACACTGCGGTAGCCTCACTATTTCCTGCTTTAGGA | 8320 PBM fluorescence, median of replicate spots
18 | Table S2 A row 1496 (dsDNA) DNA 1: GCACTGTAGGCAGGATGTGGGCAGGGGAAACTCAGG DNA 2: CCTGAGTTTCCCCTGCCCACATCCTGCCTACAGTGC | 9520 PBM fluorescence, median of replicate spots
19 | Table S2 A row 397 (dsDNA) DNA 1: AGGGGAGGAACCAGGAAGTTGTGGTAAACTGTAGCA DNA 2: TGCTACAGTTTACCACAACTTCCTGGTTCCTCCCCT | 15800 PBM fluorescence, median of replicate spots
20 | Table S2 A row 524 (dsDNA) DNA 1: TATCTCCTATCTCCAGGAAGTGGTTAGCCCTAGGAG DNA 2: CTCCTAGGGCTAACCACTTCCTGGAGATAGGAGATA | 9680 PBM fluorescence, median of replicate spots
21 | Table S2 A row 1404 (dsDNA) DNA 1: ATAGACTCAGGAAGTGATTGTGGTAAGATTCTATAT DNA 2: ATATAGAATCTTACCACAATCACTTCCTGAGTCTAT | 8880 PBM fluorescence, median of replicate spots
22 | Table S2 A row 1548 (dsDNA) DNA 1: TGCAGTCGTGAAAAAGGAAGTGGTTAAAGTGGCTAC DNA 2: GTAGCCACTTTAACCACTTCCTTTTTCACGACTGCA | 12100 PBM fluorescence, median of replicate spots

Row | Binder | binding signal
23 | Table S2 A row 332 (dsDNA) DNA 1: AACAGGAAGTGGTCTTAGAGATCATGCGGTTCAGAG DNA 2: CTCTGAACCGCATGATCTCTAAGACCACTTCCTGTT | 10100 PBM fluorescence, median of replicate spots
24 | Table S2 A row 895 (dsDNA) DNA 1: TCAAGTTTGGTAACAGGATGTGGTAGGAGGAACACA DNA 2: TGTGTTCCTCCTACCACATCCTGTTACCAAACTTGA | 13400 PBM fluorescence, median of replicate spots
25 | Table S2 A row 99 (dsDNA) DNA 1: CTTAGCACTTCAGCCGGAAACCACAGCATACATTTC DNA 2: GAAATGTATGCTGTGGTTTCCGGCTGAAGTGCTAAG | 10100 PBM fluorescence, median of replicate spots
26 | Table S2 A row 1449 (dsDNA) DNA 1: GGGTTGGGTGCCGGATGCGGTGAGTGAGGTTCTCAT DNA 2: ATGAGAACCTCACTCACCGCATCCGGCACCCAACCC | 10600 PBM fluorescence, median of replicate spots
27 | Table S2 A row 1234 (dsDNA) DNA 1: GCTGGTATGGCAGGAAGTTTCTCACCACAGTATACT DNA 2: AGTATACTGTGGTGAGAAACTTCCTGCCATACCAGC | 8760 PBM fluorescence, median of replicate spots
28 | Table S2 A row 702 (dsDNA) DNA 1: CACCTCCTCTCCGGATGCGGTTTGTTCTGCTTGTAG DNA 2: CTACAAGCAGAACAAACCGCATCCGGAGAGGAGGTG | 12500 PBM fluorescence, median of replicate spots
29 | Table S2 A row 1364 (dsDNA) DNA 1: CTCAGGGTACCAGGATGTGGTTTAGCTTAGGGGTGG DNA 2: CCACCCCTAAGCTAAACCACATCCTGGTACCCTGAG | 9440 PBM fluorescence, median of replicate spots
30 | Table S2 A row 649 (dsDNA) DNA 1: TCTGTCGTCCCACTTCCTGCTGCGGTTTCCACCTCG DNA 2: CGAGGTGGAAACCGCAGCAGGAAGTGGGACGACAGA | 14900 PBM fluorescence, median of replicate spots
31 | Table S2 A row 647 (dsDNA) DNA 1: CCCAGCCCTGCTGCCGGATGTGGTGAGGCCCAGGTG DNA 2: CACCTGGGCCTCACCACATCCGGCAGCAGGGCTGGG | 13200 PBM fluorescence, median of replicate spots
32 | Table S2 A row 1188 (dsDNA) DNA 1: CCCACTGCGCCAGGATGTGGTCAGGTCGGTGACGTT DNA 2: AACGTCACCGACCTGACCACATCCTGGCGCAGTGGG | 9170 PBM fluorescence, median of replicate spots
33 | Table S2 A row 132 (dsDNA) DNA 1: CGTCTAATTGCAGGAAGTGGTTTGAAATGTTAATCT DNA 2: AGATTAACATTTCAAACCACTTCCTGCAATTAGACG | 7750 PBM fluorescence, median of replicate spots
34 | Table S2 A row 1174 (dsDNA) DNA 1: CCTGCGGATCACGGAAGTGGCTGCGGTCGGCGCCAT DNA 2: ATGGCGCCGACCGCAGCCACTTCCGTGATCCGCAGG | 11700 PBM fluorescence, median of replicate spots
35 | Table S2 A row 550 (dsDNA) DNA 1: AGCAGGTATACCACTTCCTGTGGTTATCATTTGAGG DNA 2: CCTCAAATGATAACCACAGGAAGTGGTATACCTGCT | 8000 PBM fluorescence, median of replicate spots
36 | Table S2 A row 911 (dsDNA) DNA 1: TTACACAACAGGAAACTATGTTTAGCGGTTAATCCA DNA 2: TGGATTAACCGCTAAACATAGTTTCCTGTTGTGTAA | 9030 PBM fluorescence, median of replicate spots
37 | Table S2 A row 147 (dsDNA) DNA 1: GCAGTCAGAAGGTGCGGATGCGGTAAGGTATGCGCT DNA 2: AGCGCATACCTTACCGCATCCGCACCTTCTGACTGC | 7480 PBM fluorescence, median of replicate spots
38 | Table S2 A row 513 (dsDNA) DNA 1: AGGACGGGCGGAAGTGGCTGCGGTGGATGGTGGGAG DNA 2: CTCCCACCATCCACCGCAGCCACTTCCGCCCGTCCT | 14100 PBM fluorescence, median of replicate spots
39 | Table S2 A row 658 (dsDNA) DNA 1: AGCTAGGACAGGATGTGAAAACCACACTGACAAAGT DNA 2: ACTTTGTCAGTGTGGTTTTCACATCCTGTCCTAGCT | 11800 PBM fluorescence, median of replicate spots
40 | Table S2 A row 155 (dsDNA) DNA 1: GGGACAGACTCTCCAGGATGTGGTTGGATTTTGGGC DNA 2: GCCCAAAATCCAACCACATCCTGGAGAGTCTGTCCC | 7450 PBM fluorescence, median of replicate spots
41 | Table S2 A row 568 (dsDNA) DNA 1: GTGGGGCAGGATGTGCTTGCCTGGCTGCGGTTGGAC DNA 2: GTCCAACCGCAGCCAGGCAAGCACATCCTGCCCCAC | 11400 PBM fluorescence, median of replicate spots
42 | Table S2 A row 1132 (dsDNA) DNA 1: GCGCAAAGCCGGAAGGAGGGGTTTGCGGCTGGGGAG DNA 2: CTCCCCAGCCGCAAACCCCTCCTTCCGGCTTTGCGC | 7650 PBM fluorescence, median of replicate spots
43 | Table S2 A row 271 (dsDNA) DNA 1: CACCCCCCCAGTGCAGGAAGTGGTTTTCGAGGGCAG DNA 2: CTGCCCTCGAAAACCACTTCCTGCACTGGGGGGGTG | 14300 PBM fluorescence, median of replicate spots
44 | Table S2 A row 1115 (dsDNA) DNA 1: TCAATGACAGGAAGTTTTTAAACCACATACGGCTAA DNA 2: TTAGCCGTATGTGGTTTAAAAACTTCCTGTCATTGA | 9230 PBM fluorescence, median of replicate spots
